Laboratory results reported in patent publication US20260166115A1, “POLYUNSATURATED FATTY ACID-BOUND ALPHA FETOPROTEIN PROMOTES IMMUNE SUPPRESSION BY ALTERING HUMAN DENDRITIC CELL METABOLISM” (The Regents of the University of California, priority 2022, published 2026).

Legend:
[1] = test system: monocyte-derived dendritic cells (DCs); assay: SCENITH single-cell energetic metabolism profiling of treated DCs; type: cell-based, human; conditions: mDC HLA-DR+, CD206+, CD86+
Text: (§1) DCs were differentiated in vitro similarly as previously described (Pardee, A. D., Shi, J. & Butterfield, L. H. Tumor-Derived α-Fetoprotein Impairs the Differentiation and T Cell Stimulatory Activity of Human Dendritic Cells. J Immunol. 193, 5723-5732 (2014)). In brief, cryopreserved PBMC were thawed and CD14*monocytes were magnetically labeled using CD14 MicroBeads (Miltenyi, Cat #130-050-201) and isolated by LS columns (Miltenyi, Cat #130-042-401) per the manufacturer instructions. Viable eluted cells were enumerated using trypan blue on a Nexcelom Cellometer Spectrum. To generate iDCs, monocytes were stimulated for 5 days in the presence of 800 IU/mL of rGM-CSF (Miltenyi, Cat #130-093-862) and 500 IU/mL of rIL-4 (Miltenyi, Cat #130-095-373) as well as OVA, nAFP, or tAFP in CellGenix® GMP DC media (Cat #20801-0500) 37° C. at 5% CO2. Lastly, we performed an additional 24-hour stimulation with 1000 IU/mL of rIFN-γ (Peprotech, Cat #300-02) and 250 ng/mL of LPS (Sigma Aldrich, Cat #L2630-10MG) to produce mDCs. To harvest cells, DC were detached using TrypLE™ Select (Gibco, Cat #12563011) for 15 minutes at 37° C. and then washed several times with cold PBS.
(§2) SCENITH was performed as described in (Arguello et al., 2020). SCENITH™ reagents kit (inhibitors, puromycin and antibodies) were obtained from www.scenith.com/try-it and used according to the provided protocol for in-vitro derived myeloid cells. Briefly, control and tol-moDC cultures at desired timepoints, were treated for 18 minutes with Control (DMSO), 2-Deoxy-Glucose (2-DG; 100 mM), Oligomycin (0; 1 μM), a combination of 2DG and Oligomycin (DGO) or Harringtonine (H; 2 μg/mL). Following metabolic inhibitors, Puromycin (final concentration 10 μg/mL) was added to cultures for 17 min. After puromycin treatment, cells were detached from wells using TypLE Select (Fisher Scientific, 505914419), washed in cold PBS and stained with a combination of Human TureStain FcX (Biolegend, 422301) and fluorescent cell viability dye (Biolegend, 423105) for 10 min 4° C. in PBS. Following PBS wash step, primary antibodies against surface markers were incubated for 25 min at 4° C. in Brilliant Stain Buffer (BD Biosciences, 563794). Next cells were fixed and permeabilized using True-Nuclear Transcription Factor Buffer Set (Biolegend, 424401) as per manufacturer instructions. Intracellular staining of puromycin and protein targets was performed for 1 h in diluted (10×) permeabilization buffer at 4° C. Finally, data acquisition was performed using the Cytek Aurora flow cytometer. Primary conjugated antibody information used in SCENITH panel is listed in supplementary table 1. All antibodies were titrated to reduce spillover and increase resolution using single stained moDC (generated as described above) samples. Unstained cell controls used for autofluorescence extraction were generated for each time point, culture conditions (control, vitd3-tol-moDC and dexa-vitd3-tol-moDC) and metabolic inhibitor treatments (C, 2DG, O, DGO). Samples were unmixed using reference controls generated in combination with stained Ultracomp beads (Fisher Scientific, 01-2222-41) and stained cells using the SpectroFlo Software v2.2.0.1. The unmixed FCS files were used for data processing and analysis using FlowJo (BD, version 10.7.1). Manually gated CD14-HLA-DR*CD86+ cells were used for downstream analysis. gMFI expression values were imported into R environment for correlation and heatmap analysis using the below described R packages.

[2] = test system: monocyte-derived dendritic cells (DCs); assay: Flow cytometry phenotype of in vitro differentiated DCs treated with OVA, nAFP or tAFP; type: cell-based, human
Text: as §1, §2

mDCs generated in vitro = assay: scMEP single-cell metabolic regulome profiling by CyTOF; type: cell-based, human
Method: scMEP analysis was performed as recently described (Hartmann et al., 2021). In short, antibodies targeting metabolic features were conjugated in-house using an optimized conjugation protocol (Hartmann et al., 2019) and validated on multiple sample types. Cells were prepared for scMEP analysis by incubation with small molecules to be able to assess biosynthesis rates of DNA, RNA and protein, cisplatin-based live/dead staining, PFA-based cell fixation and cryopreservation (dx.doi.org/10.17504/protocols.io.bkwkkxcw). Next, cells were stained with metabolic antibodies in a procedure that includes surface staining for 30 min at RT, PFA-fixation for 10 min at RT, MeOH-based permeabilization for 10 min on ice, intracellular staining for 1 h at RT and DNA intercalation (dx.doi.org/10.17504/protocols.io.bntnmeme). Finally, cells were acquired on a CyTOF2 mass cytometer (Fluidigm). Protein targets and antibody information used in scMEP are listed in supplementary table 2. Raw mass spectrometry data were pre-processed, de-barcoded and imported into R environment using the flowCore package (version 2.0.1) (Hahne et al., 2009). Values were arcsin h transformed (cofactor 5) and normalized (Hartmann et al., 2021) for downstream analyses based on previously reported workflow (Nowicka et al., 2017).

dendritic cells (DCs) = conditions: tAFP-treated DCs; cited from earlier work
[3] = test system: iDCs differentiated from monocytes; assay: Microarray gene expression and g:Profiler pathway analysis of treated DCs; type: cell-based, human
Text: OVA, nAFP, and tAFP-treated DC were lysed, and total mRNA was obtained for microarray (Affymetrix HG-U133A). DE genes were uploaded in g:Profiler in R Studio for pathway analysis and visualization (Raudvere, U. et al. g:Profiler: a web server for functional enrichment analysis and conversions of gene lists (2019 update). Nucleic Acids Res. 47, W191-W198 (2019)).

[4] = test system: monocyte-derived dendritic cells (DCs); assay: Glucose and lactate measurements in DC cultures; type: cell-based, human
Text: as §1
Glucose and lactate were measured by applying approximately 5 μL of supernatant to Clarity BG1000 Blood Glucose strips (Cat #75840-798) and meter (Cat #75840-800) system or the Lactate Plus strips (Nova Biomedical©, Cat #40813) and meter version 2 (Nova Biomedical©, Cat #62624) system. Each meter was quality checked with control glucose and lactate solutions and CellGenix™ media before each experiment.

iDCs = assay: Intracellular Zn measurement by flow cytometry; type: cell-based, human; conditions: P=0.0293 vs nAFP, P=0.0228 vs OVA
Method: Intracellular Zn was quantified by flow cytometry using the Zinc Assay Kit (Cell-based) (Abcam, Cat #ab241014). Monocytes were differentiated to iDCs as described above in the presence of OVA, nAFP, tAFP, or ZnSO4. […] Cells were stained with LD Aqua for 10 minutes at RT. Cells were washed in 1× Assay Buffer, then stained in 100 μL of Assay Buffer+0.2 μL of Zn Probe for 30 minutes at 37° C. Cells were then washed twice with 1× Assay buffer then stained with HLA-DR-APC-H7 (BD, Clone: GF6-6, Cat #561358, Lot #0023290, 0339025), CD86-BV785 (BioLegend, Clone: IT2.2, Cat #305441, Lot #B277560), CD206 PE-Cy7 (Biolegend, Clone: 15-2, Cat #321123, Lot #B331254), and CD14-BUV805 (BD, Clone: M5E2, Cat #612903, Lot #0297714), in Brilliant Stain Buffer (BD Horizon, Cat #566349, Lot #0121427) for 20 minutes at 4° C. Cells were washed twice in FACS Buffer and fixed in 1% paraformaldehyde (Thermo Scientific, Cat #J19943-K2, Lot #195273, diluted in PBS) for at least 30 minutes before acquisition on a BD LSRFortessam X-50.

B1: tAFP: tumor-derived alpha fetoprotein, SEQ ID NO: 1; commercially available (Bio-Rad) (protein, listed as Homo sapiens)
chain: MKWVESIFLIFLLNFTESRTLHRNEYGIASILDSYQCTAEISLADLATIFFAQFVQEATYKEVSKMVKDALTAIEKPTGDEQSSGCLENQLPAFLEELCHEKEILEKYGHSDCCSQSEEGRHNCFLAHKKPTPASIPLFQVPEPVTSCEAYEEDRETFMNKFIYEIARRHPFLYAPTILLWAARYDKIIPSCCKAENAVECFQTKAATVTKELRESSLLNQHACAVMKNFGTRTFQAITVTKLSQKFTKVNFTEIQKLVLDVAHVHEHCCRGDVLDCLQDGEKIMSYICSQQDTLSNKITECCKLTTLERGQCIIHAENDEKPEGLSPNLNRFLGDRDFNQFSSGEKNIFLASFVHEYSRRHPQLAVSVILRVAKGYQELLEKCFQTENPLECQDKGEEELQKYIQESQALAKRSCGLFQKLGEYYLQNAFLVAYTKKAPQLTSSELMAITRKMAATAATCCQLSEDKLLACGEGAADIIIGHLCIRHEMTPVNPGVGQCCTSSYANRRPCFSSLVVDETYVPPAFSDDKFIFHKDLCQAQGVALQTMKQEFLINLVKQKPQITEEQLEAVIADFSGLLEKCCQGQEQEVCFAEEGQKLISKTRAALGV
fatty acid and glutaminolysis (FAAO) (SCENITH) [1]: reduction | glycolysis (SCENITH) [1]: dramatic increase | mitochondrial dependency (SCENITH) [1]: reduction | expression of pAMPK [2]: decreased expression | expression of the fatty acid transporter CD36 [2]: decline | co-expression of multiple activation markers (HLA-DR, CD206, CD86, ICOSLG/CD275) ([2]; Boolean analysis): decreased co-expression | DC CD86 expression ([2]; tAFP-treated DC): trend for reduced | DC CD206 expression ([2]; tAFP-treated DC): limited | DC HLA-DR expression ([2]; tAFP-treated DC): limited | ASCT2 (mDCs generated in vitro): unchanged | ETC/TCA parameters ATP5A, CS and SDHA (mDCs generated in vitro): lower | GLS (mDCs generated in vitro): tended to be lower | amino acid pathway proteins CD98 and G6PD (mDCs generated in vitro): significantly decreased | expression of DC markers CD206, PD-L1, CD11b, CD1c, HLA-DR, CD86 and CD11c (mDCs generated in vitro): reduced expression | glycolysis proteins (GLUT1, GLUT3, LDHA, ENO1, GAPDH, and MTC1) (mDCs generated in vitro): modest differences that were not statistically significant | levels of cytochrome C (CytC) (mDCs generated in vitro): elevated | FAO or FAS proteins CD36, CDPT1A, HADHA, and ACLY (mDCs generated in vitro; mDCs): decreased | mitochondrial mass (dendritic cells (DCs)): decreased | ACS gene [3]: did not reach statistical significance | SLC2A3 (GLUT3) gene expression [3]: increase | gene expression of CPT1A [3]: increased | genes involved in fatty acid metabolism (PDH, ACLY, ACC, FASN, LPL, CD36, CACT) [3]: downregulation | pathways associated with lipid metabolism ([3]; tAFP compared to nAFP): significantly downregulated | upregulated gene pathways ([3]; tAFP compared to nAFP): stress response to metal ions, particularly zinc | intracellular glucose [4]: increase | glucose uptake ([4]; DC): take up more glucose | glucose in the culture supernatants ([4]; day 6): significantly less | lactate secreted, relative to OVA-treated DCs ([4]; media of treated DCs, all HDs): approximately twice | increase in Zn MFI compared to nAFP or OVA-treated iDCs (iDCs): ~30%
